Experimental findings from article PMC8993412 (Journal of Molecular Biology, 2022) are described below.

The assay deals with SARS-CoV-2 nucleocapsid (N) protein, full-length (recombinant) (SARS-CoV-2, reference, UniProt P0DTC9). Kind of assay: ELISA. A general note: ELISA stands for enzyme-linked immunosorbent assay.

Broadly, the EC50 is the concentration at which the effect is half-maximal.

B1: IgG 16485 (anti-N) (antibody, V domains shown)
VH: EVQLVESGGGLVQPGGSLRLSCAASGFNIYSSSIHWVRQAPGKGLEWVAYISSYSGYTSYADSVKGRFTISADTSKNTAYLQMNSLRAEDTAVYYCARVPWYYAYSFGFFASFGGMDYWGQGTLVTVSS
VL: DIQMTQSPSSLSASVGDRVTITCRASQSVSSAVAWYQQKPGKAPKLLIYSASSLYSGVPSRFSGSRSGTDFTLTISSLQPEDFATYYCQQYSGYHFFPITFGQGTKVEIK
Turning to B1, the EC50 is 19 nM.
